64 variants from the RNAGym collection of RNA variant scans (doi:10.7554/elife.80360) can be followed below.

B1: HDV Ribozyme (parent)
chain: GGCCGGCAUGGUCCCAGCCUCCUCGCUGGCGCCGGCUGGGCAACAUUCCGAGGGGACCGUCCCCUCGGUAAUGGCGAAUGGGACCCA

In this series the parent is B1. As to the kind of experiment: self-cleavage, relative activity (ratio to wild type); higher = more cleavage; co-transcriptional.
For GGCCGGCAUGGUCCCAGCCUCCUCGCUGGCGCCGGCUGGGCAACAUUCCGAGGUGACCGUCCCCUCGGUUAUGGCGAAUGGGACCCA [G54U A70U], the self-cleavage is 0.997.
The result for GGCCGGCAUGGUCCCAGCCUCCUCGCUGGCGCCGGCUGGGCAACAUUCCGAGGUGACCGUGCCCUCGGUAAUGGCGAAUGGGACCCA [G54U C61G] reads 0.889; that for GGCCGGCAUGGUCCCAGCCUCCUCGCUGGCGCCGGCUGGGCAACAUUCCGAGGUGACCGUACCCUCGGUAAUGGCGAAUGGGACCCA [G54U C61A], 1.04; that for GGCCGGCAUGGUCCCAGCCUCCUCGCUGGCGCCGGCUGGGCAACAUUCCGAGGUGACCGUCCCCUCGGUAAUGACGAAUGGGACCCA [G54U G74A], 0.601.
Under GGCCGGCAUGGUCCCAGCCUCCUCGCUGGCGCCGGCUGGGCAACAUUCCGAGGCGACCGUCCCCUCGGUAAUGGCGAAUGGGAACCA [G54C C84A] stands 0.598.
With GGCCGGCAUGGUCCCAGCCUCCUCGCUGGCGCCGGCUGGGCAACAUUCCGAGGCGACCGUCCCCUCGGUAAUGGCGAAUGGGAGCCA [G54C C84G], the self-cleavage is 0.917.
The result for GGCCGGCAUGGUCCCAGCCUCCUCGCUGGCGCCGGCUGGGCAACAUUCCGAGGUGACCCUCCCCUCGGUAAUGGCGAAUGGGACCCA [G54U G59C] reads 1.03; that for GGCCGGCAUGGUCCCAGCCUCCUCGCUGGCGCCGGCUGGGCAACAUUCCGAGGUGACCGUCCCCUAGGUAAUGGCGAAUGGGACCCA [G54U C66A], 0.796.
Under GGCCGGCAUGGUCCCAGCCUCCUCGCUGGCGCCGGCUGGGCAACAUUCCGAGGUGACCGUCCCCUGGGUAAUGGCGAAUGGGACCCA [G54U C66G] stands 0.882; under GGCCGGCAUGGUCCCAGCCUCCUCGCUGGCGCCGGCUGGGCAACAUUCCGAGGCGACCGUCCCCUCAGUAAUGGCGAAUGGGACCCA [G54C G67A], 0.819; under GGCCGGCAUGGUCCCAGCCUCCUCGCUGGCGCCGGCUGGGCAACAUUCCGAGGCGACCGUCCCCUCUGUAAUGGCGAAUGGGACCCA [G54C G67U], 0.783.
In the case of GGCCGGCAUGGUCCCAGCCUCCUCGCUGGCGCCGGCUGGGCAACAUUCCGAGGCGACCGUCCCCUCCGUAAUGGCGAAUGGGACCCA [G54C G67C], the self-cleavage turned out to be 0.627.
Under GGCCGGCAUGGUCCCAGCCUCCUCGCUGGCGCCGGCUGGGCAACAUUCCGAGGUGACCGUCCCCUCGGUAAUGGCGAGUGGGACCCA [G54U A78G] stands 0.534; under GGCCGGCAUGGUCCCAGCCUCCUCGCUGGCGCCGGCUGGGCAACAUUCCGAGGUGACCGUCCCCUCGGUAAUGGCGAUUGGGACCCA [G54U A78U], 0.302.
For the variant GGCCGGCAUGGUCCCAGCCUCCUCGCUGGCGCCGGCUGGGCAACAUUCCGAGGUGAGCGUCCCCUCGGUAAUGGCGAAUGGGACCCA [G54U C57G], the self-cleavage turned out to be 1.1.
Under GGCCGGCAUGGUCCCAGCCUCCUCGCUGGCGCCGGCUGGGCAACAUUCCGAGGCGACCGUCCCCUCGGUAAUGGCGAAUGGGACGCA [G54C C85G] stands 0.724; under GGCCGGCAUGGUCCCAGCCUCCUCGCUGGCGCCGGCUGGGCAACAUUCCGAGGCGACCGUCCCCUCGGUAAUGGCGAAUGGGACACA [G54C C85A], 0.831; under GGCCGGCAUGGUCCCAGCCUCCUCGCUGGCGCCGGCUGGGCAACAUUCCGAGGCGACCGUCCCCUCGGUAAUGGCGAAUGGGACUCA [G54C C85U], 0.892.
Under GGCCGGCAUGGUCCCAGCCUCCUCGCUGGCGCCGGCUGGGCAACAUUCCGAGGUGGCCGUCCCCUCGGUAAUGGCGAAUGGGACCCA [G54U A56G] stands 1.15; under GGCCGGCAUGGUCCCAGCCUCCUCGCUGGCGCCGGCUGGGCAACAUUCCGAGGUGCCCGUCCCCUCGGUAAUGGCGAAUGGGACCCA [G54U A56C], 0.861.
With GGCCGGCAUGGUCCCAGCCUCCUCGCUGGCGCCGGCUGGGCAACAUUCCGAGGCGACCGUCCCCUCGGCAAUGGCGAAUGGGACCCA [G54C U69C], the self-cleavage came out at 0.99.
The result for GGCCGGCAUGGUCCCAGCCUCCUCGCUGGCGCCGGCUGGGCAACAUUCCGAGGCGACCGUCCCCUCGGAAAUGGCGAAUGGGACCCA [G54C U69A] reads 0.945; that for GGCCGGCAUGGUCCCAGCCUCCUCGCUGGCGCCGGCUGGGCAACAUUCCGAGGUGACCGUCCCCUCGUUAAUGGCGAAUGGGACCCA [G54U G68U], 0.842; that for GGCCGGCAUGGUCCCAGCCUCCUCGCUGGCGCCGGCUGGGCAACAUUCCGAGGUGACCGUCCCCUCGCUAAUGGCGAAUGGGACCCA [G54U G68C], 0.496.
Under GGCCGGCAUGGUCCCAGCCUCCUCGCUGGCGCCGGCUGGGCAACAUUCCGAGGUGACCGUCCCCUCGAUAAUGGCGAAUGGGACCCA [G54U G68A] stands 0.81.
As to GGCCGGCAUGGUCCCAGCCUCCUCGCUGGCGCCGGCUGGGCAACAUUCCGAGGUCACCGUCCCCUCGGUAAUGGCGAAUGGGACCCA [G54U G55C], the self-cleavage stood at 0.953.
The result for GGCCGGCAUGGUCCCAGCCUCCUCGCUGGCGCCGGCUGGGCAACAUUCCGAGGCCACCGUCCCCUCGGUAAUGGCGAAUGGGACCCA [G54C G55C] reads 0.981.
As to GGCCGGCAUGGUCCCAGCCUCCUCGCUGGCGCCGGCUGGGCAACAUUCCGAGGCUACCGUCCCCUCGGUAAUGGCGAAUGGGACCCA [G54C G55U], the self-cleavage is 1.05.
The result for GGCCGGCAUGGUCCCAGCCUCCUCGCUGGCGCCGGCUGGGCAACAUUCCGAGGCGACCGUCCCCUCGGUAAUGUCGAAUGGGACCCA [G54C G74U] reads 0.475; that for GGCCGGCAUGGUCCCAGCCUCCUCGCUGGCGCCGGCUGGGCAACAUUCCGAGGUGACCGUCCCCUCGGUAAUGGUGAAUGGGACCCA [G54U C75U], 0.189; that for GGCCGGCAUGGUCCCAGCCUCCUCGCUGGCGCCGGCUGGGCAACAUUCCGAGGUGACCGUCCCCUCGGUAAUGGAGAAUGGGACCCA [G54U C75A], 0.241.
GGCCGGCAUGGUCCCAGCCUCCUCGCUGGCGCCGGCUGGGCAACAUUCCGAGGCGACCGUCCCCUCGGUAAUAGCGAAUGGGACCCA [G54C G73A]: the self-cleavage was determined as 0.565.
Regarding GGCCGGCAUGGUCCCAGCCUCCUCGCUGGCGCCGGCUGGGCAACAUUCCGAGGUGACCGUCCCGUCGGUAAUGGCGAAUGGGACCCA [G54U C64G], the self-cleavage was determined as 0.831.
Under GGCCGGCAUGGUCCCAGCCUCCUCGCUGGCGCCGGCUGGGCAACAUUCCGAGGUGACCGUCCCCUCGGUAAUGGCGAAUGGGGCCCA [G54U A83G] stands 0.956; under GGCCGGCAUGGUCCCAGCCUCCUCGCUGGCGCCGGCUGGGCAACAUUCCGAGGUGACCGUCCCCUCGGUAAUGGCGAAUGGGCCCCA [G54U A83C], 0.386.
The result for GGCCGGCAUGGUCCCAGCCUCCUCGCUGGCGCCGGCUGGGCAACAUUCCGAGGUGACCGUCCCCUCGGUACUGGCGAAUGGGACCCA [G54U A71C] reads 0.654; that for GGCCGGCAUGGUCCCAGCCUCCUCGCUGGCGCCGGCUGGGCAACAUUCCGAGGUGACCGUCCCCUCGGUAGUGGCGAAUGGGACCCA [G54U A71G], 0.897.
The result for GGCCGGCAUGGUCCCAGCCUCCUCGCUGGCGCCGGCUGGGCAACAUUCCGAGGUGACCGUCCCCUCGGUAUUGGCGAAUGGGACCCA [G54U A71U] reads 0.987; that for GGCCGGCAUGGUCCCAGCCUCCUCGCUGGCGCCGGCUGGGCAACAUUCCGAGGCGACCGUCCCCUCGGUAAUGGCGAAGGGGACCCA [G54C U79G], 0.475.
Regarding GGCCGGCAUGGUCCCAGCCUCCUCGCUGGCGCCGGCUGGGCAACAUUCCGAGGCGACCGUCCCCUCGGUAAUGGCGAAAGGGACCCA [G54C U79A], the self-cleavage is 0.755.
Under GGCCGGCAUGGUCCCAGCCUCCUCGCUGGCGCCGGCUGGGCAACAUUCCGAGGCGACCGUCCCCUCGGUAAUGGCGAAUGGGACCUA [G54C C86U] stands 0.923; under GGCCGGCAUGGUCCCAGCCUCCUCGCUGGCGCCGGCUGGGCAACAUUCCGAGGUGACCGUCCCCUCCGUAAUGGCGAAUGGGACCCA [G54U G67C], 0.694.
Under GGCCGGCAUGGUCCCAGCCUCCUCGCUGGCGCCGGCUGGGCAACAUUCCGAGGUGACCGUCCCCUCUGUAAUGGCGAAUGGGACCCA [G54U G67U] stands 0.774.
The result for GGCCGGCAUGGUCCCAGCCUCCUCGCUGGCGCCGGCUGGGCAACAUUCCGAGGUGACCGUCCCCUCGGUAAUGGCGCAUGGGACCCA [G54U A77C] reads 0.415; that for GGCCGGCAUGGUCCCAGCCUCCUCGCUGGCGCCGGCUGGGCAACAUUCCGAGGCGACCGUCCCCGCGGUAAUGGCGAAUGGGACCCA [G54C U65G], 0.8.
GGCCGGCAUGGUCCCAGCCUCCUCGCUGGCGCCGGCUGGGCAACAUUCCGAGGCGACCGUCCCCACGGUAAUGGCGAAUGGGACCCA [G54C U65A]: the self-cleavage was found to be 0.721.
Under GGCCGGCAUGGUCCCAGCCUCCUCGCUGGCGCCGGCUGGGCAACAUUCCGAGGCGACCGUCCCCCCGGUAAUGGCGAAUGGGACCCA [G54C U65C] stands 0.92.
Under GGCCGGCAUGGUCCCAGCCUCCUCGCUGGCGCCGGCUGGGCAACAUUCCGAGGUGACCGUCCCCUCGGUAAUCGCGAAUGGGACCCA [G54U G73C] stands 0.297; under GGCCGGCAUGGUCCCAGCCUCCUCGCUGGCGCCGGCUGGGCAACAUUCCGAGGUGACCGUCCCCUCGGUAAUUGCGAAUGGGACCCA [G54U G73U], 0.364; under GGCCGGCAUGGUCCCAGCCUCCUCGCUGGCGCCGGCUGGGCAACAUUCCGAGGCGACCGUCCCCUCGGUAAUGGCGAAUGGCACCCA [G54C G82C], 0.397.
The result for GGCCGGCAUGGUCCCAGCCUCCUCGCUGGCGCCGGCUGGGCAACAUUCCGAGGCGACCGUCCCCUCGGUAAUGGCGAAUUGGACCCA [G54C G80U] reads 0.206; that for GGCCGGCAUGGUCCCAGCCUCCUCGCUGGCGCCGGCUGGGCAACAUUCCGAGGCGACCGUCCCCUCGGUAAUGGCGAAUCGGACCCA [G54C G80C], 0.256.
GGCCGGCAUGGUCCCAGCCUCCUCGCUGGCGCCGGCUGGGCAACAUUCCGAGGUGACUGUCCCCUCGGUAAUGGCGAAUGGGACCCA [G54U C58U]: the self-cleavage stood at 0.94.
Under GGCCGGCAUGGUCCCAGCCUCCUCGCUGGCGCCGGCUGGGCAACAUUCCGAGGUGACCGUCCCCUCGGUAAUGGCGAAUGGGACCCG [G54U A87G] stands 0.933.
Under GGCCGGCAUGGUCCCAGCCUCCUCGCUGGCGCCGGCUGGGCAACAUUCCGAGGUGACCGUCCCCUCGGUAAUGGCGAAUGGGACCCU [G54U A87U] stands 0.973.
The result for GGCCGGCAUGGUCCCAGCCUCCUCGCUGGCGCCGGCUGGGCAACAUUCCGAGGUGACCGUCCCCUCGGUAAUGGCGAAUGGGACCCC [G54U A87C] reads 1.06; that for GGCCGGCAUGGUCCCAGCCUCCUCGCUGGCGCCGGCUGGGCAACAUUCCGAGGUGACCGUCCACUCGGUAAUGGCGAAUGGGACCCA [G54U C63A], 0.901; that for GGCCGGCAUGGUCCCAGCCUCCUCGCUGGCGCCGGCUGGGCAACAUUCCGAGGUGACCGUCCGCUCGGUAAUGGCGAAUGGGACCCA [G54U C63G], 0.749.
With GGCCGGCAUGGUCCCAGCCUCCUCGCUGGCGCCGGCUGGGCAACAUUCCGAGGUGACCGUCCCCUCGGUAAUGGCGAAUGGGACGCA [G54U C85G], the self-cleavage came to 0.888.
Turning to GGCCGGCAUGGUCCCAGCCUCCUCGCUGGCGCCGGCUGGGCAACAUUCCGAGGCGACCGUCCCCUCGGUAAUGGCGAAUGUGACCCA [G54C G81U], the self-cleavage was found to be 0.19.
The result for GGCCGGCAUGGUCCCAGCCUCCUCGCUGGCGCCGGCUGGGCAACAUUCCGAGGCGACCGUCCCCUCGGUAAUGGCGAAUGAGACCCA [G54C G81A] reads 0.393; that for GGCCGGCAUGGUCCCAGCCUCCUCGCUGGCGCCGGCUGGGCAACAUUCCGAGGCGACCGUCCCCUCGGUAAUGGCGAAUGCGACCCA [G54C G81C], 0.196; that for GGCCGGCAUGGUCCCAGCCUCCUCGCUGGCGCCGGCUGGGCAACAUUCCGAGGCGACCAUCCCCUCGGUAAUGGCGAAUGGGACCCA [G54C G59A], 0.926.
Under GGCCGGCAUGGUCCCAGCCUCCUCGCUGGCGCCGGCUGGGCAACAUUCCGAGGCGACCGUCCCCUCGUUAAUGGCGAAUGGGACCCA [G54C G68U] stands 0.616.
